Columns and labels:
[1] = target: T1, Wildtype human PAR2 expressed on cells (human, UniProt P55085 37-397); assay: cell-based or functional assay
T1 sequence: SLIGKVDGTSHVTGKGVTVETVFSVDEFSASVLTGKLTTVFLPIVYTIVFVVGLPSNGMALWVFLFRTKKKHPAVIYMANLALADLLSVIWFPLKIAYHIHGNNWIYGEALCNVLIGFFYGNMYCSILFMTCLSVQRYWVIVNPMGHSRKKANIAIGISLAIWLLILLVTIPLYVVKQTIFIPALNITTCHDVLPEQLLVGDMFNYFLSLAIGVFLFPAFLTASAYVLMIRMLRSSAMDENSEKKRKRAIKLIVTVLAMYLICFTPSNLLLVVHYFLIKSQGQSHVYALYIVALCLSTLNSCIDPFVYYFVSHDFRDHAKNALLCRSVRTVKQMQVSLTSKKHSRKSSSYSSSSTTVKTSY

Wildtype human PAR 1 = target: T2, Wildtype human PAR 1 (human, UniProt P25116 42-425); assay: cell-based or functional assay
T2 sequence: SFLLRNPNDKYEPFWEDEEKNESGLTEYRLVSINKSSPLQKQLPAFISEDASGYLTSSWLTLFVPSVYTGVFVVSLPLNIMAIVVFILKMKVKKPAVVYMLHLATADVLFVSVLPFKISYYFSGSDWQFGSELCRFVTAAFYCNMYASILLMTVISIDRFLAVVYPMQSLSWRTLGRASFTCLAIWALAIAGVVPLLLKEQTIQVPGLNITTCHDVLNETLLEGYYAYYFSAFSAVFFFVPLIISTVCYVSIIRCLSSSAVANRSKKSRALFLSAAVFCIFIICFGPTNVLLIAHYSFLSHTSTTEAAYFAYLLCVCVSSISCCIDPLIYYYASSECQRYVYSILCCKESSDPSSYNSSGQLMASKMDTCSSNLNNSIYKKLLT

[2] = target: T1, Wildtype human PAR2 expressed on cells; assay: cell-based or functional assay; remark: listed apart in the source
[3] = target: T3, PAR2-3: P157: 1-377, glycosylated, pBacMamHisStrepII, full length (human, UniProt P55085 26-377); assay: SPR (table head: Octet); IgG captured via Fc, FL-N PAR2 StaR as analyte; koff at the lower assay limit (minimum 2.00E-05 reported)
T3 construct: detergent-solubilised analyte in SPR, or on infected cells in flow cytometry; also called FL-N PAR2 StaR; FL-N StaR; not shown: C-terminal StrepII and deca-histidine tags
T3 sequence: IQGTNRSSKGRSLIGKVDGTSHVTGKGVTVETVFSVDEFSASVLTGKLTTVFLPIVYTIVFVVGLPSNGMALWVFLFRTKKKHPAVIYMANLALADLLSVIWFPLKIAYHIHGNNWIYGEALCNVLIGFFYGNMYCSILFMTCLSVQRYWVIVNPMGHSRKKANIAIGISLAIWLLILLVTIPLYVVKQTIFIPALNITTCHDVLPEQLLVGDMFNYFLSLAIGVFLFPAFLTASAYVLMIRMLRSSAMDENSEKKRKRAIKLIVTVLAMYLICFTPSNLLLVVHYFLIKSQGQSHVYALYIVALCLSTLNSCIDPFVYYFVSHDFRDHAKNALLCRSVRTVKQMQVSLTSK
Experimental: For all eleven IgG1f_AEASS, affinities to human PAR2 were determined by SPR. The IgGs were captured via their Fc-fragment and detergent (LMNG/CHS) solubilised FL-N PAR2 StaR was used as analyte in solution. 50 mM HEPES pH 7.5, 150 mM NaCl, 0.02% LMNG was used as assay buffer. To minimize artefacts introduced by non-specific interaction of FL-N PAR2 StaR with the sensors, the CM3 sensors were used as basis to immobilize a high density of anti-hu-Fc capture antibody (BR-1008-39, GE Healthcare). IgGs were captured with relatively high levels of approximately 500 RU to achieve a higher ratio of specific to non-specific binding (while still maintaining conditions suitable for kinetic characterization). Affinities ranged from 6.5 nM to 130 pM. The koff values of the best candidates were at the lower assay limit. A minimum koff of 2.00E-05 s⁻¹ was reported (corresponding to 3% dissociation in 1500 s).

[4] = target: T1, Wildtype human PAR2 expressed on cells; assay: cell-based or functional assay; remark: listed apart in the source
[5] = target: T4, Soluble PAR2 StaR (recombinant human PAR2 StaR protein in detergent, construct not stated) (human, UniProt P55085 37-377, limits assumed); assay: SPR Biacore; soluble PAR2 StaR
T4 construct: also called purified PAR2
T4 sequence: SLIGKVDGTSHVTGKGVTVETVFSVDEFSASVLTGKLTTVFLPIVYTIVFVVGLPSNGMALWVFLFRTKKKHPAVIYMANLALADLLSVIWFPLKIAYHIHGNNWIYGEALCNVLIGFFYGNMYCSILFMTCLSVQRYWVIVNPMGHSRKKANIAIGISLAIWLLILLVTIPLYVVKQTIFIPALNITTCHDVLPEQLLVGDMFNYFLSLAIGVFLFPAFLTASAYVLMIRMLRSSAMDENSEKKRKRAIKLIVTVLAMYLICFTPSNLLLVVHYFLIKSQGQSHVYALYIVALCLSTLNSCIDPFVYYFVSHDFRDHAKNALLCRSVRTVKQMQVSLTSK

[6] = target: T1, Wildtype human PAR2 expressed on cells; assay: cell-based or functional assay; remark: listed apart in the source
[7] = target: Cynomolgus PAR2 on BacMam-infected HEK293 cells (cynomolgus); assay: cell-based or functional assay
Rhesus PAR2 on cells = Rhesus PAR2 on cells (rhesus (Macaca mulatta)); assay: cell-based or functional assay

| Binder | % Max Inhibition, Bovine Trypsin challenge, IP-One [1] [%] | Human PAR1 SFLLR IC50, IP-One (Wildtype human PAR 1) [nM] | SFLLR fold inhibition, human PAR1, IP-One (Wildtype human PAR 1) [fold] | % Max Inhibition, AP challenge, IP-One [2] [%] | koff [3] [s⁻¹] | AP IC50, HT-29 FLIPR calcium mobilisation [4] [nM] | Trypsin IC50, HT-29 FLIPR calcium mobilisation [4] [nM] | Kd [5] [nM] | koff [5] [s⁻¹] | kon [5] [M⁻¹ s⁻¹] | IC50 (nM), SLIGKV agonist challenge, Human [6] [nM] | IC50 (nM), SLIGKV agonist challenge, Cyno [7] [nM] | IC50 (nM), SLIGKV agonist challenge, Rhesus (Rhesus PAR2 on cells) [nM] |
| --- | --- | --- | --- | --- | --- | --- | --- | --- | --- | --- | --- | --- | --- |
| Y022870 (antibody, human IgG1, lambda, V domains shown, also called Y22870) VH: EVQLLESGGGLVQPGGSLRLSCAASGFSFSRYAITWVRQAPGKGLEWVSTISALGLETYYAESVRGRFTISRDNSKNTLYLQMNSLRAEDTAVYYCARGFHYTHSGKRYYYPFDIWGQGTLVTVSS VL: QSALTQPASVSGSPGQSITISCTGTSSDVGSYNLVSWYQQHPGKAPKLMIYEGSKRPSGVSNRFSGSKSGNTASLTISGLQAEDEADYYCSQYATFIAFAVFGGGTKLTVLG | 10 | > 3160 | 0 | 203 | ≤ 2e-05 | 17.8 | 40 | 0.21 | 7e-06 | 34000 | 61 | 88 | 50 |
| Y022877 (antibody, human IgG1, lambda, V domains shown, also called Y22877) VH: EVQLLESGGGLVQPGGSLRLSCAASGFTFSRYAMTWVRQAPGKGLEWVSTISGLGQEAYYAGSVKGRFTISRDNSKNTLYLQMNSLRAEDTAVYYCARGFHYTHSGKRYYYPFDIWGQGTLVTVSS VL: QSALTQPASVSGSPGQSITISCTGTSSDVGSYNLVSWYQQHPGKAPKLMIYEGSKRPSGVSNRFSGSKSGNTASLTISGLQAEDEADYYCSQYATFIAFAVFGGGTKLTVLG | 58 | > 3160 | 0 | 167 | 2e-05 | 44.3 | 49 | 0.3 | 8e-06 | 27000 | 52 | 74 | 47 |
| Y022883 (antibody, human IgG1, lambda, V domains shown, also called Y22883; Y02283) VH: EVQLLESGGGLVQPGGSLRLSCAASGFSFTRYAISWVRQAPGKGLEWVSVISGHGSEANYAESVKGRFTISRDNSKNTLYLQMNSLRAEDTAVYYCARGFHYTHSGKRYYYPFDIWGQGTLVTVSS VL: QSALTQPASVSGSPGQSITISCTGTSSDVGSYNLVSWYQQHPGKAPKLMIYEGSKRPSGVSNRFSGSKSGNTASLTISGLQAEDEADYYCSQYATFIAFAVFGGGTKLTVLG | 48 | > 3160 | 0 | 149 | 2e-05 | 42 | 47 | 0.4 | 1.2e-05 | 30000 | 54 | 68 | 43 |

Reference: patent US20250313621A1 (NXERA PHARMA UK, published 2025)
